B1: Basal cell adhesion molecule (Homo sapiens), P50895 (parent)
chain: MEPPDAPAQARGAPRLLLLAVLLAAHPDAQAEVRLSVPPLVEVMRGKSVILDCTPTGTHDHYMLEWFLTDRSGARPRLASAEMQGSELQVTMHDTRGRSPPYQLDSQGRLVLAEAQVGDERDYVCVVRAGAAGTAEATARLNVFAKPEATEVSPNKGTLSVMEDSAQEIATCNSRNGNPAPKITWYRNGQRLEVPVEMNPEGYMTSRTVREASGLLSLTSTLYLRLRKDDRDASFHCAAHYSLPEGRHGRLDSPTFHLTLHYPTEHVQFWVGSPSTPAGWVREGDTVQLLCRGDGSPSPEYTLFRLQDEQEEVLNVNLEGNLTLEGVTRGQSGTYGCRVEDYDAADDVQLSKTLELRVAYLDPLELSEGKVLSLPLNSSAVVNCSVHGLPTPALRWTKDSTPLGDGPMLSLSSITFDSNGTYVCEASLPTVPVLSRTQNFTLLVQGSPELKTAEIEPKADGSWREGDEVTLICSARGHPDPKLSWSQLGGSPAEPIPGRQGWVSSSLTLKVTSALSRDGISCEASNPHGNKRHVFHFGTVSPQTSQAGVAVMAVAVSVGLLLLVVAVFYCVRRKGGPCCRQRREKGAPPPGEPGLSHSGSEQPEQTGLLMGGASGGARGGSGGFGDEC
partner: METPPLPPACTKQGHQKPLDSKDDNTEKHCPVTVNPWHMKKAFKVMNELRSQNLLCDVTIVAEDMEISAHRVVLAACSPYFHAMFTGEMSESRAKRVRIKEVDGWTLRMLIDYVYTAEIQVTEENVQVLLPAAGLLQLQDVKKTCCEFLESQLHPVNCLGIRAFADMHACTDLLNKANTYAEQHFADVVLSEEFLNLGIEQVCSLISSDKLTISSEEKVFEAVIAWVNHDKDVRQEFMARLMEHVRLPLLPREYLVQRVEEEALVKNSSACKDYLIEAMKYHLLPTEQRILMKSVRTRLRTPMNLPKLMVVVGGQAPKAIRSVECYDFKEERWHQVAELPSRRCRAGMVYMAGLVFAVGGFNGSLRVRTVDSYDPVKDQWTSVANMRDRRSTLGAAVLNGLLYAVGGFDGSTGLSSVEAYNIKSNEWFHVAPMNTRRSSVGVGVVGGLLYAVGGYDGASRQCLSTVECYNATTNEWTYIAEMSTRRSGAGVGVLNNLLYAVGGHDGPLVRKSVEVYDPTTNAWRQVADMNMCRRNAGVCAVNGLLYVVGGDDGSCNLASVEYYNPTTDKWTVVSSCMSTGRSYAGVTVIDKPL
B2: 2'-5'-oligoadenylate synthase 1 (Homo sapiens), P00973-2 (parent)
chain: MMDLRNTPAKSLDKFIEDYLLPDTCFRMQINHAIDIICGFLKERCFRGSSYPVCVSKVVKGGSSGKGTTLRGRSDADLVVFLSPLTTFQDQLNRRGEFIQEIRRQLEACQRERAFSVKFEVQAPRWGNPRALSFVLSSLQLGEGVEFDVLPAFDALGQLTGGYKPNPQIYVKLIEECTDLQKEGEFSTCFTELQRDFLKQRPTKLKSLIRLVKHWYQNCKKKLGKLPPQYALELLTVYAWERGSMKTHFNTAQGFRTVLELVINYQQLCIYWTKYYDFKNPIIEKYLRRQLTKPRPVILDPADPTGNLGGGDPKGWRQLAQEAEAWLNYPCFKNWDGSPVSSWILLVRPPASSLPFIPAPLHEA
partner: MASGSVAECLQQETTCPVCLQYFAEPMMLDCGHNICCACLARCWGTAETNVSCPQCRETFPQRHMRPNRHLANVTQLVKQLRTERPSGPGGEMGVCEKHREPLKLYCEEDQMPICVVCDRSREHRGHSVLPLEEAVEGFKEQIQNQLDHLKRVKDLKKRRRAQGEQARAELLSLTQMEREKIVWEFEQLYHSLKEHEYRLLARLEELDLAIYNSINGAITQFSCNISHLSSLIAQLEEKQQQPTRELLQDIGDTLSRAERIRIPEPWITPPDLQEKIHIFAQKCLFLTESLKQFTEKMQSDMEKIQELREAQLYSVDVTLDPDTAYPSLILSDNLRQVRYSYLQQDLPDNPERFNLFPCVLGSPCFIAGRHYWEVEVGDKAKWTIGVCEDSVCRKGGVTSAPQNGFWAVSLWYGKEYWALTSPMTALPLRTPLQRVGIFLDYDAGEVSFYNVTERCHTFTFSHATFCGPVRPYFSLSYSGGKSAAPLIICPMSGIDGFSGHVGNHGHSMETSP
B3: Low density lipoprotein receptor adapter protein 1 (Homo sapiens), Q5SW96 (parent)
chain: MDALKSAGRALIRSPSLAKQSWGGGGRHRKLPENWTDTRETLLEGMLFSLKYLGMTLVEQPKGEELSAAAIKRIVATAKASGKKLQKVTLKVSPRGIILTDNLTNQLIENVSIYRISYCTADKMHDKVFAYIAQSQHNQSLECHAFLCTKRKMAQAVTLTVAQAFKVAFEFWQVSKEEKEKRDKASQEGGDVLGARQDCTPSLKSLVATGNLLDLEETAKAPLSTVSANTTNMDEVPRPQALSGSSVVWELDDGLDEAFSRLAQSRTNPQVLDTGLTAQDMHYAQCLSPVDWDKPDSSGTEQDDLFSF
partner: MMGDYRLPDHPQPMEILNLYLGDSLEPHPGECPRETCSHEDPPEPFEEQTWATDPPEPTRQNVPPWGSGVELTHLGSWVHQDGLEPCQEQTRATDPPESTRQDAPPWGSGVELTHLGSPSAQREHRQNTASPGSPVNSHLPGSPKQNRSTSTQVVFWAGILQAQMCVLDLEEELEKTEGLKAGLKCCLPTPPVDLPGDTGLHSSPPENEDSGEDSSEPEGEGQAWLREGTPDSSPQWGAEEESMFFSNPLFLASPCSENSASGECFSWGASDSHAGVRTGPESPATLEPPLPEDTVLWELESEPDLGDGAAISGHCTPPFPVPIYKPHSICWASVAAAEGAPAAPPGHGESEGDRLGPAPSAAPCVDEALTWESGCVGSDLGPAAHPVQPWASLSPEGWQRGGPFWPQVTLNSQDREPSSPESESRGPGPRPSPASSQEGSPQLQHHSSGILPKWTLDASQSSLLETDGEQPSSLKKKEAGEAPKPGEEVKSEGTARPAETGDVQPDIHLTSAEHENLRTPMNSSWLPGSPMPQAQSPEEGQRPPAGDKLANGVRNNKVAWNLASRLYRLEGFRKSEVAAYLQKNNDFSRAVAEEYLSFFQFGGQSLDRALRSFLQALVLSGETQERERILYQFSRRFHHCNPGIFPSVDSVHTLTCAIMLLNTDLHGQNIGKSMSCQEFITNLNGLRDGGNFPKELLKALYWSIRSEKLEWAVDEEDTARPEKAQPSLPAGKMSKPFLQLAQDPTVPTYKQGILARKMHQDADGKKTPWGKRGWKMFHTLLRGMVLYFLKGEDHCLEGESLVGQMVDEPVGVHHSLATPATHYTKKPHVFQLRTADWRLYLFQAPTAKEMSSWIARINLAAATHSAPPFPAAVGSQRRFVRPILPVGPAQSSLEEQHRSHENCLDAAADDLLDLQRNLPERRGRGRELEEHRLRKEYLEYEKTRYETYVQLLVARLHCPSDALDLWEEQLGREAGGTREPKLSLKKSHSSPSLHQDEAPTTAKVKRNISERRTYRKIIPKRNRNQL
B4: U4/U6 small nuclear ribonucleoprotein Prp3 (Homo sapiens), O43395 (parent)
chain: MALSKRELDELKPWIEKTVKRVLGFSEPTVVTAALNCVGKGMDKKKAADHLKPFLDDSTLRFVDKLFEAVEEGRSSRHSKSSSDRSRKRELKEVFGDDSEISKESSGVKKRRIPRFEEVEEEPEVIPGPPSESPGMLTKLQIKQMMEAATRQIEERKKQLSFISPPTPQPKTPSSSQPERLPIGNTIQPSQAATFMNDAIEKARKAAELQARIQAQLALKPGLIGNANMVGLANLHAMGIAPPKVELKDQTKPTPLILDEQGRTVDATGKEIELTHRMPTLKANIRAVKREQFKQQLKEKPSEDMESNTFFDPRVSIAPSQRQRRTFKFHDKGKFEKIAQRLRTKAQLEKLQAEISQAARKTGIHTSTRLALIAPKKELKEGDIPEIEWWDSYIIPNGFDLTEENPKREDYFGITNLVEHPAQLNPPVDNDTPVTLGVYLTKKEQKKLRRQTRREAQKELQEKVRLGLMPPPEPKVRISNLMRVLGTEAVQDPTKVEAHVRAQMAKRQKAHEEANAARKLTAEQRKVKKIKKLKEDISQGVHISVYRVRNLSNPAKKFKIEANAGQLYLTGVVVLHKDVNVVVVEGGPKAQKKFKRLMLHRIKWDEQTSNTKGDDDEESDEEAVKKTNKCVLVWEGTAKDRSFGEMKFKQCPTENMAREHFKKHGAEHYWDLALSESVLESTD
partner: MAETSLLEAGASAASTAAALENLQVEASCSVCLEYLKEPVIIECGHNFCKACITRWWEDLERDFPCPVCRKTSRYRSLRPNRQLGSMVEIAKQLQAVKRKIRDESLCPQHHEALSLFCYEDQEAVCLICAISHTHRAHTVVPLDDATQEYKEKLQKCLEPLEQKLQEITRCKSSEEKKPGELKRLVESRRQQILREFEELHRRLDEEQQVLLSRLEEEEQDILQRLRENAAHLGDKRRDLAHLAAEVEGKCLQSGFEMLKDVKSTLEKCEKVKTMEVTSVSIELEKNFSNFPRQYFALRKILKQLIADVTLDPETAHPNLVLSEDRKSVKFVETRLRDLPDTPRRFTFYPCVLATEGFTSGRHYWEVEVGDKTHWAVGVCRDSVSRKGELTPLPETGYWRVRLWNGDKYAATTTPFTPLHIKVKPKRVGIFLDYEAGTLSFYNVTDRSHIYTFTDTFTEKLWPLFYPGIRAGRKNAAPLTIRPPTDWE
B5: EF-hand domain-containing protein 1 (Homo sapiens), Q5JVL4 (parent)
chain: MVSNPVHGLPFLPGTSFKDSTKTAFHRSQTLSYRNGYAIVRRPTVGIGGDRLQFNQLSQAELDELASKAPVLTYGQPKQAPPADFIPAHVAFDKKVLKFDAYFQEDVPMSTEEQYRIRQVNIYYYLEDDSMSVIEPVVENSGILQGKLIKRQRLAKNDRGDHYHWKDLNRGINITIYGKTFRVVDCDQFTQVFLESQGIELNPPEKMALDPYTELRKQPLRKYVTPSDFDQLKQFLTFDKQVLRFYAIWDDTDSMYGECRTYIIHYYLMDDTVEIREVHERNDGRDPFPLLMNRQRVPKVLVENAKNFPQCVLEISDQEVLEWYTAKDFIVGKSLTILGRTFFIYDCDPFTRRYYKEKFGITDLPRIDVSKREPPPVKQELPPYNGFGLVEDSAQNCFALIPKAPKKDVIKMLVNDNKVLRYLAVLESPIPEDKDRRFVFSYFLATDMISIFEPPVRNSGIIGGKYLGRTKVVKPYSTVDNPVYYGPSDFFIGAVIEVFGHRFIILDTDEYVLKYMESNAAQYSPEALASIQNHVRKREAPAPEAESKQTEKDPGVQELEALIDTIQKQLKDHSCKDNIREAFQIYDKEASGYVDRDMFFKICESLNVPVDDSLVKELIRMCSHGEGKINYYNFVRAFSN
partner: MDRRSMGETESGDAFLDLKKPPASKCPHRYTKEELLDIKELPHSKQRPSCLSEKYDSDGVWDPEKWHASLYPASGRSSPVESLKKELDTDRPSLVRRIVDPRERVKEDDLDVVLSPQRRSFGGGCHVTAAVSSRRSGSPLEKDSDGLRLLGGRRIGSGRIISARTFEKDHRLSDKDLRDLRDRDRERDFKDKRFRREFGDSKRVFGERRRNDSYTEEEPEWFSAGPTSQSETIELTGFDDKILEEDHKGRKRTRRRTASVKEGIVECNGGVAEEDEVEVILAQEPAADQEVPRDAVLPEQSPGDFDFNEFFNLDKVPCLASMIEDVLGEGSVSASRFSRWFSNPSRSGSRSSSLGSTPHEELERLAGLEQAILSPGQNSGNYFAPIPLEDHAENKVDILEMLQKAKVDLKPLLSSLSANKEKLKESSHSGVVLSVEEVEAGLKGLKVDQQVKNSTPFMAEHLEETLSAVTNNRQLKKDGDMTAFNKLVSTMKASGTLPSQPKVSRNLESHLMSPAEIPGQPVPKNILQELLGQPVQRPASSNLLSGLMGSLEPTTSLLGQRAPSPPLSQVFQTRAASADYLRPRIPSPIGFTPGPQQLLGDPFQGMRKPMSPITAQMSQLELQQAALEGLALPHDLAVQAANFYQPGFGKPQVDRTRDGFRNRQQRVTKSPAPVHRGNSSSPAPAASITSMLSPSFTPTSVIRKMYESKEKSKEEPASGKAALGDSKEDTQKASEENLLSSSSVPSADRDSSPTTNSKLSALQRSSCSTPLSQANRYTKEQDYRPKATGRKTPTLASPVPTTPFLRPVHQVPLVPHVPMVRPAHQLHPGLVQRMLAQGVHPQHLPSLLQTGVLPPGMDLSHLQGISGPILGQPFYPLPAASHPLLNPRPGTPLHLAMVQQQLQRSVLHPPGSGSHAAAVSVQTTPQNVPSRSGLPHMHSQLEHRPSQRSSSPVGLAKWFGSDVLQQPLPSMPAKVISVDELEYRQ

Variants of: B1
Conditions: with klhl2_human KLHL2, O95198

Row | Variant | effect of a mutation on the interaction
1 | S447L | with no effect
2 | R77H | with no effect

Variants of: B2
Conditions: with tri27_human TRIM27, P14373

Row | Variant | effect of a mutation on the interaction
3 | R242Q | with no effect

Variants of: B3
Conditions: with PSD4, Q8NDX1-2

Row | Variant | effect of a mutation on the interaction
4 | R238W | with no effect

Variants of: B4
Conditions: with TRIM39, Q9HCM9-2

Row | Variant | effect of a mutation on the interaction
5 | P493S | disrupting interaction strength
6 | A489D | disrupting interaction strength
7 | T494M | disrupting interaction strength

Variants of: B5
Conditions: with 4et_human EIF4ENIF1, Q9NRA8

Row | Variant | effect of a mutation on the interaction
8 | A394S | disrupting interaction strength
9 | R221H | disrupting interaction strength
10 | M448T | with no effect
11 | R159W | with no effect

Reference: IntAct's records for PubMed 25910212
